Source: PMC9482650, “Quantitative fragmentomics allow affinity mapping of interactomes” (Nature Communications, 2022)

Key:
Assay in all cases: holdup assay
Design in all cases: key: below the threshold = too weak to quantify, mostly under pKd 3.1 to 4
Settings in all cases: plain residues with an end cap or a label only (N-terminal biotin on a linker: ado-ado)
APBA2_1, Q99767 = biological target: T1, APBA2_1, Q99767
T1 sequence (Q99767 563-664, limits assumed, looked up): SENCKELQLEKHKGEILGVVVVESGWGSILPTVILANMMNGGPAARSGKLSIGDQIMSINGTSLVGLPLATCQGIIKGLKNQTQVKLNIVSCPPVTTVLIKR

APBA2_2, Q99767 = biological target: T2, APBA2_2, Q99767
T2 sequence (Q99767 654-744, limits assumed, looked up): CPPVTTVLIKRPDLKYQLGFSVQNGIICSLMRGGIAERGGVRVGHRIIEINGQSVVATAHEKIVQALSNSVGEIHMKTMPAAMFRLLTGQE

ARHGAP21, Q5T5U3 = biological target: T3, ARHGAP21, Q5T5U3
T3 sequence (Q5T5U3 45-169, limits assumed, looked up): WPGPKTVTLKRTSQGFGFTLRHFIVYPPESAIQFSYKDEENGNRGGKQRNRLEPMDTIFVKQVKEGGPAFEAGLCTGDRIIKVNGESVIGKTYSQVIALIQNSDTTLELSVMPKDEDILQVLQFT

DFNB31_2, Q9P202 = biological target: T4, DFNB31_2, Q9P202
T4 sequence (Q9P202 274-371, limits assumed, looked up): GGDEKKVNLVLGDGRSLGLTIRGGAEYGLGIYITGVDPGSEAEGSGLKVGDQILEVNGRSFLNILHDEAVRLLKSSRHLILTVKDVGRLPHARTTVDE

DLG1_2, Q12959 = biological target: DLG1_2, Q12959
DLG1_3, Q12959 = biological target: DLG1_3, Q12959
DLG2_2, Q15700 = biological target: DLG2_2, Q15700
DLG3_1, Q92796 = biological target: T5, DLG3_1, Q92796
T5 sequence (Q92796 125-227, limits assumed, looked up): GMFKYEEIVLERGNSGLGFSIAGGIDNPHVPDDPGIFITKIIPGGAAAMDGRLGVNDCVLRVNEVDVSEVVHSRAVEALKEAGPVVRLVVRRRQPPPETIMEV

FRMPD2_1, Q68DX3 = biological target: FRMPD2_1, Q68DX3
FRMPD4, Q14CM0 = biological target: FRMPD4, Q14CM0
GIPC2, Q8TF65 = biological target: GIPC2, Q8TF65
GRID2IP_1, A4D2P6 = biological target: GRID2IP_1, A4D2P6
GRIP1_7, Q9Y3R0 = biological target: T6, GRIP1_7, Q9Y3R0
T6 sequence (Q9Y3R0 999-1096, limits assumed, looked up): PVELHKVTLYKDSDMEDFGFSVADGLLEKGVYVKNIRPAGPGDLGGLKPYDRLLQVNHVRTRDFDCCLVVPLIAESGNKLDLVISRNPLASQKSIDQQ

GRIP2_7, Q9C0E4 = biological target: GRIP2_7, Q9C0E4
HTRA2, O43464 = biological target: HTRA2, O43464
IL16_4, Q14005 = biological target: IL16_4, Q14005
Inadl_2, Q8NI35 = biological target: Inadl_2, Q8NI35
Inadl_5, Q8NI35 = biological target: Inadl_5, Q8NI35
LRRC7, Q96NW7 = biological target: T7, LRRC7, Q96NW7
T7 sequence (Q96NW7 1440-1537, limits assumed, looked up): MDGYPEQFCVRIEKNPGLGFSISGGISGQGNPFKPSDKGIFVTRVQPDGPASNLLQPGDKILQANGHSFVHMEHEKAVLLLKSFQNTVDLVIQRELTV

MAGI2_2, Q86UL8 = biological target: MAGI2_2, Q86UL8
MAGI2_3, Q86UL8 = biological target: MAGI2_3, Q86UL8
NHERF3_1, Q5T2W1 = biological target: T8, NHERF3_1, Q5T2W1
T8 sequence (Q5T2W1 4-100, limits assumed, looked up): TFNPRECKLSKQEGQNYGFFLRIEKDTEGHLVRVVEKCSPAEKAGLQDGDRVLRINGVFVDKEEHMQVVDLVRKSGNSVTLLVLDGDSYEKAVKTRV

NHERF3_3, Q5T2W1 = biological target: T9, NHERF3_3, Q5T2W1
T9 sequence (Q5T2W1 238-333, limits assumed, looked up): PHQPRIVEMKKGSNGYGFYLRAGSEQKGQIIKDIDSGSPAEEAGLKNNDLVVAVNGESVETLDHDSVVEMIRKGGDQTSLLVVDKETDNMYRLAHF

NHERF3_4, Q5T2W1 = biological target: T10, NHERF3_4, Q5T2W1
T10 sequence (Q5T2W1 373-468, limits assumed, looked up): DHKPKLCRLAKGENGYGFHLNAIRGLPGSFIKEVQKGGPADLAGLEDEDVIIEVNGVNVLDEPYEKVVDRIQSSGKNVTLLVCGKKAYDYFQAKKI

PTPN13_1, Q12923 = biological target: T11, PTPN13_1, Q12923
T11 sequence (Q12923 1088-1188, limits assumed, looked up): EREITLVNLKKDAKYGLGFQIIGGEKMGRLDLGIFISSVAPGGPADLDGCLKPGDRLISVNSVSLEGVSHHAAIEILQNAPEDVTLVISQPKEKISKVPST

SIPA1L2, Q9P2F8 = biological target: T12, SIPA1L2, Q9P2F8
T12 sequence (Q9P2F8 945-1036, limits assumed, looked up): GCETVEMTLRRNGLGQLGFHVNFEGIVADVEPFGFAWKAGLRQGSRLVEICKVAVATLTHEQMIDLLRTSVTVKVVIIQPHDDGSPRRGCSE

Chain of HTRA2, O43464 (O43464 355-458): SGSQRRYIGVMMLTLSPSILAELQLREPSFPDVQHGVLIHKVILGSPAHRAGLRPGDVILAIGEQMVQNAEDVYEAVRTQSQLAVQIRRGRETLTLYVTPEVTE
Chain of GIPC2, Q8TF65 (Q8TF65 112-203): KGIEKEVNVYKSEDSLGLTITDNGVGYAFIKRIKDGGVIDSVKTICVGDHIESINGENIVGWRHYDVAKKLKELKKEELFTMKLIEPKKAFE
Chain of FRMPD2_1, Q68DX3 (Q68DX3 770-861): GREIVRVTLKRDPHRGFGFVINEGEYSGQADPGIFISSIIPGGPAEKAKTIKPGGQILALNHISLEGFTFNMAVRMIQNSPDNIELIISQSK
Chain of Inadl_5, Q8NI35 (Q8NI35 673-780): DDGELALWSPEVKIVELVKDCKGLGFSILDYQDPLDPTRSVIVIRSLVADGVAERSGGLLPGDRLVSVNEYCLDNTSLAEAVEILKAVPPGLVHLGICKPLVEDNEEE
Chain of MAGI2_2, Q86UL8 (Q86UL8 410-522): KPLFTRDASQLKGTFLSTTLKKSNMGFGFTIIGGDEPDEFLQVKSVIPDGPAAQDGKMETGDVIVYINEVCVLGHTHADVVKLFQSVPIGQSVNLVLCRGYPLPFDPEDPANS
Chain of Inadl_2, Q8NI35 (Q8NI35 238-335): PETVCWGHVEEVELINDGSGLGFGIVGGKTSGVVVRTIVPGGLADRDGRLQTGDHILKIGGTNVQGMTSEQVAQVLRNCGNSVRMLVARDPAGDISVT
Chain of IL16_4, Q14005 (Q14005 1229-1329): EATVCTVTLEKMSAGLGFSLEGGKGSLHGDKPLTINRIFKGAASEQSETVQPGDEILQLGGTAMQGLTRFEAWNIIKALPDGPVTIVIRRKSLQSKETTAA
Chain of FRMPD4, Q14CM0 (Q14CM0 67-160): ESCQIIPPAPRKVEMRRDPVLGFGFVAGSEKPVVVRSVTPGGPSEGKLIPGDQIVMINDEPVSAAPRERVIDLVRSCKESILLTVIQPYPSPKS
Chain of GRIP2_7, Q9C0E4 (Q9C0E4 934-1023): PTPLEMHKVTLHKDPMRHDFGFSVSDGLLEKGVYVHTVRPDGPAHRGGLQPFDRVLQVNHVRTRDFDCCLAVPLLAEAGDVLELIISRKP
Chain of DLG1_3, Q12959 (Q12959 457-571): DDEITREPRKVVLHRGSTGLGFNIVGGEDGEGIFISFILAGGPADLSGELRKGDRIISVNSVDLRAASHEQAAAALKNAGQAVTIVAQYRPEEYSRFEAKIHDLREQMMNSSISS
Chain of GRID2IP_1, A4D2P6 (A4D2P6 1-87): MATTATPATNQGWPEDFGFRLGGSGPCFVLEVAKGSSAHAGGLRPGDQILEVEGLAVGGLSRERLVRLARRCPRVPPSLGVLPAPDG
Chain of MAGI2_3, Q86UL8 (Q86UL8 600-682): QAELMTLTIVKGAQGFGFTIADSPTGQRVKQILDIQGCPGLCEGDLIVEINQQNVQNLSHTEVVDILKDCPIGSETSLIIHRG
Chain of DLG1_2, Q12959 (Q12959 314-412): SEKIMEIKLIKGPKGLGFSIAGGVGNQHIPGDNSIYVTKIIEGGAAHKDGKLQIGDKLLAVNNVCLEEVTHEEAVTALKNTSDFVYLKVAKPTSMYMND
Chain of DLG2_2, Q15700 (Q15700 189-283): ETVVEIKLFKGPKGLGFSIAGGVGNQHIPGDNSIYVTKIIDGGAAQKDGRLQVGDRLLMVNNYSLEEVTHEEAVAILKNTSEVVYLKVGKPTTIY

Binder	pKd (APBA2_1, Q99767)	pKd (APBA2_2, Q99767)	pKd (ARHGAP21, Q5T5U3)	pKd (DFNB31_2, Q9P202)	pKd (DLG1_2, Q12959)	pKd (DLG1_3, Q12959)	pKd (DLG2_2, Q15700)	pKd (DLG3_1, Q92796)	pKd (FRMPD2_1, Q68DX3)	pKd (FRMPD4, Q14CM0)	pKd (GIPC2, Q8TF65)	pKd (GRID2IP_1, A4D2P6)	pKd (GRIP1_7, Q9Y3R0)	pKd (GRIP2_7, Q9C0E4)	pKd (HTRA2, O43464)	pKd (IL16_4, Q14005)	pKd (Inadl_2, Q8NI35)	pKd (Inadl_5, Q8NI35)	pKd (LRRC7, Q96NW7)	pKd (MAGI2_2, Q86UL8)	also measured
QLGSPTADLA [SIPA1, Q96FS4]	below the threshold	below the threshold	below the threshold	below the threshold	below the threshold	below the threshold	below the threshold	below the threshold	below the threshold	below the threshold	below the threshold	below the threshold	below the threshold	below the threshold	below the threshold	below the threshold	below the threshold	below the threshold	below the threshold	below the threshold	pKd (MAGI2_3, Q86UL8): 3.56; pKd (NHERF3_1, Q5T2W1): below the threshold; pKd (NHERF3_3, Q5T2W1): below the threshold; pKd (NHERF3_4, Q5T2W1): below the threshold; pKd (PTPN13_1, Q12923): below the threshold; pKd (SIPA1L2, Q9P2F8): below the threshold
PSVYSRSQYV [CLDN8, P56748]	below the threshold	below the threshold	4.12	below the threshold	3.86	below the threshold	below the threshold	below the threshold	4.36	below the threshold	below the threshold	below the threshold	below the threshold	3.51	4.46	below the threshold	below the threshold	4.31	below the threshold	below the threshold	pKd (MAGI2_3, Q86UL8): below the threshold; pKd (NHERF3_1, Q5T2W1): 5.34; pKd (NHERF3_3, Q5T2W1): below the threshold; pKd (NHERF3_4, Q5T2W1): 4.13; pKd (PTPN13_1, Q12923): below the threshold; pKd (SIPA1L2, Q9P2F8): below the threshold
RGKNRRQSIF [CDK18, Q07002]	below the threshold	3.5	below the threshold	below the threshold	below the threshold	3.71	3.5	below the threshold	3.5	3.65	below the threshold	below the threshold	below the threshold	below the threshold	below the threshold	below the threshold	below the threshold	below the threshold	below the threshold	below the threshold	pKd (MAGI2_3, Q86UL8): 3.64; pKd (NHERF3_1, Q5T2W1): 3.85; pKd (NHERF3_3, Q5T2W1): below the threshold; pKd (NHERF3_4, Q5T2W1): below the threshold; pKd (PTPN13_1, Q12923): below the threshold; pKd (SIPA1L2, Q9P2F8): below the threshold
NKSEPFLTWL [WWTR1, Q9GZV5]	below the threshold	below the threshold	4.88	below the threshold	3.59	below the threshold	below the threshold	below the threshold	below the threshold	5.15	below the threshold	below the threshold	below the threshold	4.21	4.51	below the threshold	3.92	below the threshold	4.31	3.57	pKd (MAGI2_3, Q86UL8): 3.48; pKd (NHERF3_1, Q5T2W1): 5.05; pKd (NHERF3_3, Q5T2W1): 4.12; pKd (NHERF3_4, Q5T2W1): 4.15; pKd (PTPN13_1, Q12923): 3.66; pKd (SIPA1L2, Q9P2F8): below the threshold
